# From the supplement of paper PMC10126150
# ± gives the standard deviation of the averaged measurements.
# System: ATP
# Assay: switch fluorescence ratio, 500 uM ATP over buffer (Cy3 cluster intensity, sum of 5 cycles each) (fold (ratio)); higher = stronger signal-on switching upon ATP binding; sequences stand for … in TCGTCGGCAGCGTCAGATGTGTATAAGAGACAGTTTTTTTTTTTTTTTTTTTTTTTTT…TC
# Details: aptamer strand: ATP DNA aptamer (quencher-CACCTGGGGGAGTATTGCGGAGGAAGG + anchor), 100 nM annealed; ATP concentration: 500 uM
# In short: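 For every switch-domain sequence, the fluorescence ratio is the mean of per-cluster values, each being summed target-cycle Cy3 intensity over summed buffer-cycle Cy3 intensity. Clusters outside 100-1000 RFU were excluded. On a modified Illumina MiSeq flow-cell, the Cy3-labelled switching-strand clusters were annealed to 100 nM quencher-labelled ATP aptamer, imaged in selection buffer and then after 15 min with 500 uM ATP at 22 °C. Five such cycles were run, with NaOH stripping and re-annealing between them.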
# 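Note: ATP exposure 15 min at 22 °C before imaging.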
row,Sequence,switch fluorescence ratio
1,AATGCCTCAG,1 ± 0.024
2,AATGCCTTTT,1.04 ± 0.037
3,AATGCGGGGT,1.13 ± 0.16
4,AATGCGTATG,1.02 ± 0.036
5,AATGCGTGGC,1.0436 ± 0.00057
6,AATGCTAATA,0.952 ± 0.011
7,AATGCTGTGT,0.97 ± 0.021
8,AATGGAATTT,1.03 ± 0.066
9,AATGGAGGGA,0.974 ± 0.011
10,AATGGAGGGT,1.03 ± 0.055
11,AATGGATATG,1.02 ± 0.058
12,AATGGCACAG,1.01 ± 0.015
13,AATGGCATTT,0.989 ± 0.025
14,AATGGCCAAG,1 ± 0.0056
15,AATGGCGCGA,1.02 ± 0.054
16,AATGGGGAAT,1.25 ± 0.4
17,AATGGGGGTA,0.998 ± 0.034
18,AATGGGGTAT,1.02 ± 0.018
19,AATGGGTAC,1.015 ± 0.0059
20,AATGGGTACT,1 ± 0.015
21,AATGGGTTCA,1.021 ± 0.0062
22,AATGGGTTGA,0.9743 ± 0.0053
23,AATGGTAATT,0.995 ± 0.039
24,AATGGTAGGG,1 ± 0.03
25,AATGGTCAT,0.991 ± 0.071

row,Sequence,switch fluorescence ratio
1,AATGGTGATT,1.02 ± 0.046
2,AATGGTGCCT,0.996 ± 0.07
3,AATGGTTTGG,0.985 ± 0.013
4,AATGTCAATG,0.991 ± 0.021
5,AATGTCAGCT,1.01 ± 0.021
6,AATGTCATCA,0.993 ± 0.013
7,AATGTCATTT,1 ± 0.018
8,AATGTGCGGG,0.963 ± 0.042
9,AATGTGCTGT,0.983 ± 0.058
10,AATGTGGACG,0.988 ± 0.04
11,AATGTGTGAA,1.01 ± 0.017
12,AATGTTAAGT,0.994 ± 0.022
13,AATGTTATCT,0.994 ± 0.057
14,AATGTTGTCC,1.007 ± 0.0094
15,AATGTTTGTT,0.971 ± 0.015
16,AATTAAAAGT,0.989 ± 0.017
17,AATTAAAGTT,0.98603 ± 0.00086
18,AATTAACGCG,0.993 ± 0.023
19,AATTAAGAGA,1.04 ± 0.017
20,AATTAAGGGG,0.997 ± 0.029
21,AATTAAGGGT,0.9881 ± 0.0058
22,AATTAAGTGT,0.969 ± 0.021
23,AATTAATCCA,0.997 ± 0.017
24,AATTACGTAA,1.06 ± 0.012
25,AATTACGTTT,1.06 ± 0.062

row,Sequence,switch fluorescence ratio
1,AATTACTTTT,1.02 ± 0.02
2,AATTAGCAAG,1.04 ± 0.018
3,AATTAGCTGT,0.9743 ± 0.0085
4,AATTAGGGGG,0.981 ± 0.064
5,AATTAGTCTA,1.01 ± 0.03
6,AATTATTGCA,0.997 ± 0.043
7,AATTATTGTT,0.996 ± 0.017
8,AATTATTTTG,1 ± 0.045
9,AATTATTTTT,0.9867 ± 0.0061
10,AATTCAACAC,1.05 ± 0.038
11,AATTCATAGT,0.978 ± 0.018
12,AATTCCGATA,1.02 ± 0.026
13,AATTCGGCTT,0.978 ± 0.0088
14,AATTCGGGCG,1.02 ± 0.071
15,AATTCGTCGG,1.02 ± 0.045
16,AATTCTATAG,0.995 ± 0.033
17,AATTGAGGGC,1.02 ± 0.035
18,AATTGATCGT,0.982 ± 0.024
19,AATTGCATAA,0.996 ± 0.04
20,AATTGCCTGT,0.933 ± 0.071
21,AATTGCTTGT,0.978 ± 0.02
22,AATTGGCGTA,1.01 ± 0.034
23,AATTGGGGGG,0.998 ± 0.04
24,AATTGGTGTT,0.985 ± 0.025
25,AATTGTAGGC,0.976 ± 0.036

row,Sequence,switch fluorescence ratio
1,AATTGTTATG,0.999 ± 0.039
2,AATTGTTGGG,1.01 ± 0.041
3,AATTTAAGAA,0.971 ± 0.013
4,AATTTACACT,1.06 ± 0.014
5,AATTTAGGAG,1.01 ± 0.051
6,AATTTAGGTT,0.993 ± 0.03
7,AATTTAGTTT,0.978 ± 0.026
8,AATTTCACTT,1.003 ± 0.0047
9,AATTTCGGAT,0.9595 ± 0.0035
10,AATTTCGGGG,0.999 ± 0.017
11,AATTTGACAT,1.03 ± 0.02
12,AATTTGATGG,0.995 ± 0.013
13,AATTTGATGT,1.005 ± 0.0056
14,AATTTGCGGC,0.982 ± 0.029
15,AATTTGCGTT,0.999 ± 0.013
16,AATTTGGAAG,0.981 ± 0.027
17,AATTTGGGCG,1 ± 0.04
18,AATTTGGTAC,1.068 ± 0.0027
19,AATTTGGTCG,0.978 ± 0.03
20,AATTTGGTGC,1.011 ± 0.0064
21,AATTTGTCCA,0.98 ± 0.015
22,AATTTGTGGA,0.9855 ± 0.007
23,AATTTGTGGC,0.995 ± 0.034
24,AATTTTATGG,1.01 ± 0.022
25,AATTTTCGGA,0.991 ± 0.013

row,Sequence,switch fluorescence ratio
1,AATTTTCTGC,1.01 ± 0.053
2,AATTTTGAGG,0.984 ± 0.034
3,AATTTTGCGG,1.01 ± 0.038
4,AATTTTTAAA,0.968 ± 0.038
5,AATTTTTAAC,1 ± 0.028
6,AATTTTTAGG,0.98099 ± 2.5e-05
7,AATTTTTCAT,0.977 ± 0.028
8,AATTTTTCCG,1.05 ± 0.036
9,ACAAAACTC,1.27 ± 0.37
10,ACAAACGCTG,1.28 ± 0.0027
11,ACAAAGCGCC,1.06 ± 0.015
12,ACAAATGCAA,1.12 ± 0.037
13,ACAAATGCAG,1.01 ± 0.013
14,ACAAATTGCG,0.991 ± 0.027
15,ACAAGAGATA,1.01 ± 0.015
16,ACAAGCTGAC,1.27 ± 0.15
17,ACAAGGATA,1.006 ± 0.0077
18,ACAAGGTATA,1.15 ± 0.15
19,ACAAGTATGT,1.02 ± 0.041
20,ACAAGTGATC,1.076 ± 0.0017
21,ACAATCGAGC,0.988 ± 0.047
22,ACAATCGTTT,1.01 ± 0.014
23,ACAATCTAAA,1.033 ± 0.0091
24,ACACAGTACT,1.37 ± 0.09
25,ACACATCCGG,1.06 ± 0.015

row,Sequence,switch fluorescence ratio
1,ACACATCGGA,1.005 ± 0.0057
2,ACACCACGTT,1.56 ± 0.057
3,ACACCCCCGT,1.67 ± 0.19
4,ACACCCTTGG,1.08 ± 0.098
5,ACACCTGAGT,1.16 ± 0.011
6,ACACGCCCAA,1.12 ± 0.069
7,ACACGGCGGC,1.07 ± 0.033
8,ACACGGGGCG,0.984 ± 0.066
9,ACACGGGGCT,1.01 ± 0.051
10,ACACGGGTGC,1.74 ± 0.062
11,ACACGTGCCC,1 ± 0.028
12,ACACTAGGTT,1.06 ± 0.051
13,ACACTCTTGA,1.03 ± 0.025
14,ACACTGCCAT,1.16 ± 0.032
15,ACAGCAGTTG,1.04 ± 0.042
16,ACAGCCCGGA,1.07 ± 0.04
17,ACAGCGCCGG,1.018 ± 0.002
18,ACAGCGGACG,1.02 ± 0.031
19,ACAGCGTGGG,1.041 ± 0.0097
20,ACAGCTGAAG,1.002 ± 0.0066
21,ACAGCTGAGC,0.999 ± 0.0079
22,ACAGGAAGGG,1 ± 0.01
23,ACAGGATGGT,0.998 ± 0.024
24,ACAGGCAGGA,1.01 ± 0.022
25,ACAGGCCAGG,1.23 ± 0.082

row,Sequence,switch fluorescence ratio
1,ACAGGGGAAT,1.01 ± 0.012
2,ACAGGGGTAA,1.01 ± 0.013
3,ACAGGGGTTA,1.25 ± 0.4
4,ACAGGGGTTT,1.37 ± 0.7
5,ACAGGGTGCA,1.03 ± 0.052
6,ACAGGGTTAC,0.991 ± 0.027
7,ACAGGTATTA,0.996 ± 0.017
8,ACAGGTCATT,1.01 ± 0.034
9,ACAGTATGGC,0.952 ± 0.041
10,ACAGTATGGG,1.03 ± 0.021
11,ACAGTCAAGG,1.02 ± 0.035
12,ACAGTCAGAT,1.057 ± 0.0067
13,ACAGTCATGG,1.021 ± 0.0092
14,ACAGTCTCTG,1.03 ± 0.018
15,ACAGTGCCGG,1.02 ± 0.055
16,ACAGTGCGGC,0.961 ± 0.035
17,ACAGTTCCCC,1.13 ± 0.25
18,ACAGTTGTTA,0.98717 ± 0.00059
19,ACAGTTTTGC,0.985 ± 0.02
20,ACATAAAGGG,1.03 ± 0.024
21,ACATAATTTC,1.03 ± 0.02
22,ACATACCGTG,1.21 ± 0.038
23,ACATACGAGT,1.38 ± 0.029
24,ACATACGCAA,4.63 ± 0.56
25,ACATATGGTA,0.9801 ± 0.0085

row,Sequence,switch fluorescence ratio
1,ACATATTGTG,1.03 ± 0.062
2,ACATCAGATG,1.005 ± 0.0023
3,ACATCTTCGA,0.97 ± 0.046
4,ACATGAATGG,0.969 ± 0.016
5,ACATGATCTC,0.993 ± 0.021
6,ACATGATGGC,1.05 ± 0.018
7,ACATGATTCG,0.99 ± 0.03
8,ACATGATTGC,1.029 ± 0.0054
9,ACATGATTGG,0.97 ± 0.037
10,ACATGCTACG,1.05 ± 0.034
11,ACATGGGGGG,0.993 ± 0.038
12,ACATGGGTGC,1.11 ± 0.063
13,ACATGTTGCC,1.02 ± 0.0074
14,ACATGTTGTT,0.993 ± 0.024
15,ACATTCCAGT,1.14 ± 0.15
16,ACATTCGCGT,1.05 ± 0.018
17,ACATTCTACG,1.25 ± 0.017
18,ACATTTGACG,1.05 ± 0.017
19,ACATTTGGGA,0.964 ± 0.026
20,ACATTTGTGG,1.01 ± 0.021
21,ACCAAATAAG,1.02 ± 0.023
22,ACCAATAGGA,1.01 ± 0.021
23,ACCAATATAT,0.996 ± 0.033
24,ACCACGAATG,1.025 ± 0.0051
25,ACCACGCGGG,1.01 ± 0.066
